Assay results as given in US20260250410A1 (SICHUAN HUIYU PHARMACEUTICAL, published 2026).
Positions count from the first letter of the chain named. Where two headings read alike, the source gives them in different places.

How the values were obtained:
HuCDCP1-C = target: T1, HuCDCP1-C (human, UniProt Q9H5V8 30-667); assay: ELISA, coated antigen
T1 construct: range 30-667; expressed in HEK-293T, purified by Fc/his tag; also called human CDCP1-C; full-length extracellular domain of human CDCP1; not shown: Fc or his tag
T1 sequence (looked up): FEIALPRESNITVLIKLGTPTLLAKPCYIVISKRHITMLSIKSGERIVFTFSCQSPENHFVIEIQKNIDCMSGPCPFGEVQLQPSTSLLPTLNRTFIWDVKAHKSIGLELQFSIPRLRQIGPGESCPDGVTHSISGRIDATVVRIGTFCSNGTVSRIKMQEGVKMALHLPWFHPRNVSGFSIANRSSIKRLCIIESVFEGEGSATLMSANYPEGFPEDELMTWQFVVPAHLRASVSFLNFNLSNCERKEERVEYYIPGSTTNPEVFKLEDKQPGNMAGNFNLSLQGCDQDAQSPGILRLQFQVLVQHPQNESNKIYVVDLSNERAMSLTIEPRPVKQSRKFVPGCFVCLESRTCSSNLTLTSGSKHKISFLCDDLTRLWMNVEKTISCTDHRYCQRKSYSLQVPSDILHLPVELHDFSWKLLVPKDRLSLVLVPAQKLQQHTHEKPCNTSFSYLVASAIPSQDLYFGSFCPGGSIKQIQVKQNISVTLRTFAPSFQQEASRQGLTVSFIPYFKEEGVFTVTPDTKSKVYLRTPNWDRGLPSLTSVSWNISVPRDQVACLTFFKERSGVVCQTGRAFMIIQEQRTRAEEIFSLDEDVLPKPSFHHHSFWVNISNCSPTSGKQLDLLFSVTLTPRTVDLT
Procedure: (§1) The candidate antibodies obtained from Example 6 were subjected to gene cloning, constructed into an expression vector for a small amount of expression in CHO cells, and purified with an Fc affinity column (AT Protein A Diamond Plus. No. AA402312). Antibody purity was analyzed by HPLC and determined by Nanodrop. High-throughput affinity assay was carried out for a small amount of antibodies by Caterra. […] At the same time, 2 μg/ml antigen human CDCP1-C and 2 μg/ml human CDCP1-B were used for coating, and the antigen-antibody binding capacity was tested by ELISA for verification.

huCDCP1-his = target: T2, huCDCP1-his (human, UniProt Q9H5V8 30-667, limits assumed); assay: SPR (Caterra), antigen immobilized
T2 construct: also called human CDCP1 antigen; not shown: his tag
T2 sequence (looked up): T1 sequence (looked up)
Procedure: as §1

[1] = target: T3, human CDCP1 on tumor cells (human, UniProt Q9H5V8 30-836); assay: cell-based or functional assay
T3 sequence (looked up): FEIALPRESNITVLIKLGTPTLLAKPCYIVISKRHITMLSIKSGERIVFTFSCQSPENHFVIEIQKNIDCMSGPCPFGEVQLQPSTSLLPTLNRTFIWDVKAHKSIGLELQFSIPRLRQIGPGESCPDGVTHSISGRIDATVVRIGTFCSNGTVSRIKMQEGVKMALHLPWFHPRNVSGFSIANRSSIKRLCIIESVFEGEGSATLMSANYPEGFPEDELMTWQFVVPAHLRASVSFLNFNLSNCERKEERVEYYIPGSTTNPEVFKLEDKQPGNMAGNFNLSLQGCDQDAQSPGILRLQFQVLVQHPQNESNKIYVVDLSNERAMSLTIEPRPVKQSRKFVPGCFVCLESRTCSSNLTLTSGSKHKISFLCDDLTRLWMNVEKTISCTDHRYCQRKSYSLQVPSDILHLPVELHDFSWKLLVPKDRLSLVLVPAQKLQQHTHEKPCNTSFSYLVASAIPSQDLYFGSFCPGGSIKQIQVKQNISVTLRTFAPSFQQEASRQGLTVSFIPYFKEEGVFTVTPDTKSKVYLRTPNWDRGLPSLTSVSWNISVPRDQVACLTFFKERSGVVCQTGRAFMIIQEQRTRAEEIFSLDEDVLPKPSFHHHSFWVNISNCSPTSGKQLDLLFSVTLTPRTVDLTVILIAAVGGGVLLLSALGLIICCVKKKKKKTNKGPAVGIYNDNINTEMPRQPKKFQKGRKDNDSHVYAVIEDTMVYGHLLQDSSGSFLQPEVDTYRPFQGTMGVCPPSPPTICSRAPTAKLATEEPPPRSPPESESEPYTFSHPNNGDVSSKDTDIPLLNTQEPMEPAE

[2] = target: T3, human CDCP1 on tumor cells; assay: laser confocal microscopy, HCC1806 cells, dye-labeled antibody
From the text: The lysosomes were labeled with red fluorescence, and the relative position changes and colocalization of green fluorescence and red fluorescence in the cells were detected to determine whether the antibodies were colocalized with lysosomes after endocytosis into the cells.

[3] = target: T3, human CDCP1 on tumor cells; assay: cell-based or functional assay; remark: listed apart in the source
[4] = target: T3, human CDCP1 on tumor cells; assay: cell-based or functional assay; remark: listed apart in the source

B1: SB4 (antibody, V domains shown)
VH: QVQLQQSGAELVRPGTSVKISCKASGYTFTNYWLGWVKQRPGHGLEWIGDNYPGDNYRNFNEKFKGKATLTTDASSSTAYLQLSSLISEDSAVYFCTRSGGSRYYTMDYWGQGTSVTVSS
VL: DIVMTQAAFSNPVTLGTSASISCRSSRSLLHNNGITYLYWYLQKPGQSPQLLIYQMSNLASGVPDRFHSSGSGTDFTLSISRVEAEDVGVYYCAQNLDLPYTFGGGTKLEIK
notes: single B cell antibody, expressed in CHO
Q: For B1, which EC50 (HuCDCP1-C) is on record?
A: 0.071 nM

Q: What about the Kd (huCDCP1-his) of the same binder?
A: 7.66 nM

B2: 6A7-MMAE (antibody, V domains shown)
VH: EVQLKESGAELVRPGASVKVSCKASGYSFTSYWMNWVKQRPGQGLEWIGMIHPSDSETKLNQKFRDRASLTVDKSSSTAYMQLSSPTSEDSAVYYCTINYESFYYAMDYWGQGTTVTVSS
VL: DIVMTQSPASLAVSLGQRATISCRASKSVSTSGYSYMHWYQQKPGQPPKLLLYLASNLESGVPARFSGSGSGADFTLNIHPVEEEDAATYYCLHSRELPYTFGGGTKLEIK
modifications: vc-MMAE coupled after reduction, sites not stated; DAR 3.6
Q: For B2, which “IC50 (nM), killing of HCT116 cells (120 h), CellTiter-Glo” value (shortened to “IC50 (nM), killing of HCT116 cells”) [1] is on record?
A: 5.84 nM

Q: What about the “IC50 (nM), killing of MDA-MB-231 cells (120 h), CellTiter-Glo” value [1] of the same binder?
A: > 40 nM

Q: What about the “IC50 (nM), killing of PC3 cells (96 h), CellTiter-Glo” value [1] of the same binder?
A: 0.0527 nM

B3: SB7 (antibody, V domains shown)
VH: QVQLQQSGPELVSPGESVKISCKGSGYTFTDYAVHWVKQSHSKSLEWIGVKSVYYGITKYSQNFKDKATMTVDKSSSTAYMELARLTSEDSAIYYCARDSYGSSRGYFDYWGQGTTLTVSS
VL: DIKMTQSPSSIYVSPGERVTITCKASQDINSFLSWFQQKPGKSPKTLIYRANRLVDGVPSRFSGSGSGQDYSLTISSLEYEDMGIYYCLQYDEFPRTFGGGTKLEIK
notes: as for B1
Q: How did the EC50 (HuCDCP1-C) turn out when B3 was run?
A: 0.034 nM

Q: And the Kd (huCDCP1-his)?
A: 1.74 nM

B4: 1CP-064 (antibody, V domains shown)
VH: EVKLVESGPGILQPSQTLSLTCSFSGFSLSTSGMGVGWIRQPSGKGLEWLAHIWWDDVKRYNPALKSRLTISKDTSSSQVFLKIASVDTADTATYYCARMGGKVPWFAYWGQGTTVTVSS
VL: DVVMTQTPASLAVSLGQRATISCRASESVDSYGNSFMHWYQQKPGQPPKLLIYLASNLESGVPARFSGSGSRTDFTLTIDPVEADDAATYYCQQNNEDPWTFGGGTKLEIK
notes: murine hybridoma mAb
Q: Does B4 bind [2]?
A: binds

B5: 1CP-062 (antibody, V domains shown)
VH: EVKLVESGPGLVAPSQSLSITCTVSGFSLTTYGVHWVRQPPGKGLEWLVVIWSDGNTTYNSALKSRLSINKDNSKSQVFLKMNSLQTDDTAMYYCAKNYRNYDYAMDYWGQGTTVTVSS
VL: B4 VL with V2I, L54R, V62I, D80N, A87V, N95S, W100Y
notes: murine hybridoma mAb
Q: Does B5 bind [2]?
A: binds

B6: SB1 (antibody, V domains shown)
VH: QVQLQQSGPDLVRPGESVKISCKGSGYTFTDHAIHWVRQSHAKSLEWIGVISFSYDNTKYNQNFKGKATMTVDKSSNTAYMELARLTSEDSAIYYCARDCYGSNRGYFDYWGQGTTLTVSS
VL: DIRMTQSPSSMYASLGERVTITCKASQDINRFLSWFLQRPGKAPKTLIYRANNLVEGVPSRFSGSGSGQDYSLIISNLEYEDMGIYYCLQYDEFPRTFGGGTKLEIK
notes: as for B1
Q: Which results are given for B6?
A: EC50 (HuCDCP1-C): 0.092 nM; Kd (huCDCP1-his): 1.61 nM

B7: 1CP-065 (antibody, V domains shown)
VH: EVTLKESGAELVRPGALVKLSCKASGFNIKDYYMHWVKQRPEQGLEWIGWIDPENDNTIYDPKFQGKASITADTSSNTAYLQLSSLTSEDTAVYYCARFYGSYYYAMDYWGQGTTVTVSS
VL: DIVMTQSPKFMSTSVGDRVSITCKASQDVSTAVTWYQQKPGQSPKLLIYWASTRHTGVPDRFTGSGSGTDYTLTISSVQAEDLALYYCQQHYSTPYTFGGGTKLEIK
notes: murine hybridoma mAb
Q: Does B7 bind [2]?
A: binds

B8: 3B12H5-MMAE (antibody, V domains shown)
VH: EVQLQQSGTVLARPGASVKMSCKASGYSFTIYWVHWVKQRPGQGLEWIGAVYPGNDDTSYNQNFKGKAKLTAVTSATTAYMELSSLTIDDSAVYYCTRHTYDEVFDYWGQGTTVTVSS
VL: DIVMTQSPSSLSVSLGDRVTITCKASEDIYYRLAWYQQKPGNAPRLLISGGTNLEAGIPSRFSGSGSGKDYTLSITSLQTEDVAIYYCQHYWNTPWTFGGGTKLEIK
modifications: vc-MMAE coupled after reduction, sites not stated; DAR 3.2
Q: How did the “IC50 (nM), killing of HCT116 cells” value [1] turn out when B8 was run?
A: 6.87 nM

Q: And the “IC50 (nM), killing of MDA-MB-231 cells (120 h), CellTiter-Glo” value [1]?
A: > 40 nM

Q: What about the “IC50 (nM), killing of PC3 cells (96 h), CellTiter-Glo” value [1] of the same binder?
A: 0.0225 nM

B9: SB2 (antibody, V domains shown)
VH: DVKLVESGGGLVKPGGSLKLSCAASGFTFSSYTMSWVRQTPEKRLEWVATISSGGIYTYYPDSVKGRFTISRDNAKDTLYLQMNSLRSEDTAVYYCSSPHSYAISYGYFDYWGQGTTLTVSS
VL: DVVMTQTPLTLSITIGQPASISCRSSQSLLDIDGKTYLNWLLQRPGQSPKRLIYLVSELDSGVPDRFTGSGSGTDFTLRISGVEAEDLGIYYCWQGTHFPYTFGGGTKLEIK
notes: as for B1
Q: With B9 as the binder, how does the EC50 (HuCDCP1-C) read?
A: 0.045 nM

Q: And the Kd (huCDCP1-his)?
A: 1.44 nM

B10: SB3 (antibody, V domains shown)
VH: B9 VH with K13E, T28P, N84S
VL: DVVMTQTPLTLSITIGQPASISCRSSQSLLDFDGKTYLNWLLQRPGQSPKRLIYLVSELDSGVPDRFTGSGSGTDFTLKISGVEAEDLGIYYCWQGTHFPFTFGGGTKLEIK
notes: as for B1
Q: Which results are given for B10?
A: EC50 (HuCDCP1-C): 0.049 nM; Kd (huCDCP1-his): 0.201 nM

B11: SB6 (antibody, V domains shown)
VH: QGQMQQSGAELVKPGASVKLSCKTSGFTFNSSYITWLKQKPGQSLEWIAWIFAGTGGTYYNEKFTDKAQLTVDTTSSTAYMQFSSLTTEDSAIYYCARHGLGYDYWGQGTTLTVSS
VL: SIVMTQTPKFLLVSAGDRVTITCKASQSVNTDVAWYQQKSGQSPKLLIYSASNRYTGVPDRFTGSGYGTDFTFTISTVQAEDLAVYFCQQDHSSPPWTFGGGTKLEIK
notes: as for B1
Q: Which results are given for B11?
A: EC50 (HuCDCP1-C): 0.027 nM; Kd (huCDCP1-his): 0.722 nM

B12: 1CP-063 (antibody, V domains shown)
VH: EVNLKESGPELVKPGASVRISCKASGYTFTSYYIHWVKQRPGQGLEWIGWIYPGNVNSKYNEKFKGKVTLTADKSSITAYMQLSSLTSEDSAVYFCAREDYGHYYAMDYWGQGTTVTVSS
VL: DIVMTQSPSSMYASLGERVTITCKASQDIKSYLSWYQQKPWKSPKTLIYYATSLADGVPSRFSGSGSGQDYSLTISSLESDDTATYYCLQYGESPWTFGGGTKLEIK
notes: murine hybridoma mAb
Q: Does B12 bind [2]?
A: binds

B13: 1CP-125-MMAE (antibody, human IgG1, kappa, V domains shown)
VH: QVQLVQSGAEVKKPGASVKVSCKASGYNFISYWLHWVRQAPGQGLEWMGGIYPGNTDTTYNQKFKGRVTMTADTSTSTVYMELSSLRSEDTAVYYCIRYDYDRGMDYWGQGTLVTVSS
VL: DIQMTQSPSSLSASVGDRVTITCRASEDIYYRLAWYQQKPGKAPKLLISGATALETGVPSRFSGSGSGKDYTFTISSLQPEDIATYYCQHYWNIPWTFGQGTKVEIKR
modifications: vc-MMAE coupled after reduction, sites not stated; DAR 4.3
Q: How did the “IC50 (nM), killing of HCC1806 cells (120 h), CellTiter-Glo” value [3] turn out when B13 was run?
A: 0.272 nM

Q: And the “IC50 (nM), killing of HCT116 cells” value [4]?
A: 0.668 nM

B14: G10F6-MMAE (antibody, V domains shown)
VH: EVKLVESGPGILQPSQTLSLTCSFSGFSLSTSGMGVSWVRQPSGKGLEWLAHIYWDDDKRYNPSLKGRLTISKDTPRNQVFLEITSVDTTDTATYYCARVPGNWDEDAMDYWGQGTTVTVSS
VL: DIQMTQSPLSLPVSLGDQASISCRSSQNIVHTNGNTYLEWYLQKVGQSPKLLIYKVSNRFSGVPDRFSGSGSGTDFTLKISRVEAEDLGVYYCFQGSHVPYTFGGGTKLEIK
modifications: vc-MMAE coupled after reduction, sites not stated; DAR 3.6
Q: What does the source list for B14?
A: IC50 (nM), killing of HCT116 cells (120 h), CellTiter-Glo [1]: 1.29 nM; IC50 (nM), killing of MDA-MB-231 cells (120 h), CellTiter-Glo [1]: > 40 nM; IC50 (nM), killing of PC3 cells (96 h), CellTiter-Glo [1]: 0.0106 nM
